Data published in article PMC3202633.

Molecular target: GFP-β1-integrin (UniProt P05556)
Experiment: co-IP; GFP-Trap capture of GFP-β1-integrin (or GFP alone) from MEFs spread on 50K-coated dishes, unstimulated or stimulated with H/0 for 10 min, cross-linked with DTBP; western blotting

UniProt P05556, sequence (P05556 21-798): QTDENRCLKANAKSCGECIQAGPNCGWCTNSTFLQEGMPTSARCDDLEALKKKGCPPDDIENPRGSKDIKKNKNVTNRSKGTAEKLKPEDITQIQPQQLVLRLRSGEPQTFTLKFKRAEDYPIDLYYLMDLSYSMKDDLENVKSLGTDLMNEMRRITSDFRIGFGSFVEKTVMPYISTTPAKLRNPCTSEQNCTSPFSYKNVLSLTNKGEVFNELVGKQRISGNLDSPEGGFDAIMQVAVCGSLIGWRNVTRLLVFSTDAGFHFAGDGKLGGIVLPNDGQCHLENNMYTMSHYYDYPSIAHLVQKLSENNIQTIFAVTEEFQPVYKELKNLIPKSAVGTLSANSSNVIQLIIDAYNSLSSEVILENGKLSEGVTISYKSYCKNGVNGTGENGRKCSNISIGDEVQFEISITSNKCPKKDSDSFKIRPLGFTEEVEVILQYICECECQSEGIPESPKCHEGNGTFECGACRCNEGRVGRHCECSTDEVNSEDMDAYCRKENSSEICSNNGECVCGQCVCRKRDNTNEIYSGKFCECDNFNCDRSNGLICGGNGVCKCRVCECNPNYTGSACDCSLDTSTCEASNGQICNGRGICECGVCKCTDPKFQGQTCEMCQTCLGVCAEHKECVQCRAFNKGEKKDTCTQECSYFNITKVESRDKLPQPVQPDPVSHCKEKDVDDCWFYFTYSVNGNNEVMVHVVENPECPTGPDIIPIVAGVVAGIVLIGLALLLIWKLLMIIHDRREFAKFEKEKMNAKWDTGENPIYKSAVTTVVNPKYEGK
RhoGDI, sequence (Q99PT1 whole entry): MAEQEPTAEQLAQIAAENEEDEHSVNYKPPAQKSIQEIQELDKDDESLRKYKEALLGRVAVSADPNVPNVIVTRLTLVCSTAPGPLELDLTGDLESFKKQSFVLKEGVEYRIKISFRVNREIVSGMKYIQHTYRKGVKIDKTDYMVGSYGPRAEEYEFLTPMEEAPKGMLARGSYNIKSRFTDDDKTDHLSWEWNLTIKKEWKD

reduction in bound RhoGDI after 10 min H/0 stimulation, against unstimulated cells: 46%
Substance: RhoGDI (from UniProt Q99PT1 1-204) (natural protein)
